Substitutions are numbered along the chain they refer to. Names and notes keep the numbering of the source.
B1: HOIL-1: epitope-tagged HOIL-1, LUBAC component (protein)
chain: MDEKTKKAEEMALSLTRAVAGGDEQVAMKCAIWLAEQRVPLSVQLKPEVSPTQDIRLWVSVEDAQMHTVTIWLTVRPDMTVASLKDMVFLDYGFPPVLQQWVIGQRLARDQETLHSHGVRQNGDSAYLYLLSARNTSLNPQELQRERQLRMLEDLGFKDLTLQPRGPLEPGPPKPGVPQEPGRGQPDAVPEPPPVGWQCPGCTFINKPTRPGCEMCCRARPEAYQVPASYQPDEEERARLAGEEEALRQYQQRKQQQQEGNYLQHVQLDQRSLVLNTEPAECPVCYSVLAPGEAVVLRECLHTFCRECLQGTIRNSQEAEVSCPFIDNTYSCSGKLLEREIKALLTPEDYQRFLDLGISIAENRSAFSYHCKTPDCKGWCFFEDDVNEFTCPVCFHVNCLLCKAIHEQMNCKEYQEDLALRAQNDVAARQTTEMLKVMLQQGEAMRCPQCQIVVQKKDGCDWIRCTVCHTEICWVTKGPRWGPGGPGDTSGGCRCRVNGIPCHPSCQNCH
B2: N-terminal 185 amino acids (aa) spanning the PUB domain of HOIP: HOIP truncation (protein, UniProt Q96EP0 1-185, looked up, fragment)
chain: MPGEEEERAFLVAREELASALRRDSGQAFSLEQLRPLLASSLPLAARYLQLDAARLVRCNAHGEPRNYLNTLSTALNILEKYGRNLLSPQRPRYWRGVKFNNPVFRSTVDAVQGGRDVLRLYGYTEEQPDGLSFPEGQEEPDEHQVATVTLEVLLLRTELSLLLQNTHPRQQALEQLLEDKVEDD
B3: HOIP: epitope-tagged HOIP, LUBAC E3 ligase component (protein, UniProt Q96EP0 1-1072, looked up)
E3 ubiquitin-protein ligase …: MPGEEEERAFLVAREELASALRRDSGQAFSLEQLRPLLASSLPLAARYLQLDAARLVRCNAHGEPRNYLNTLSTALNILEKYGRNLLSPQRPRYWRGVKFNNPVFRSTVDAVQGGRDVLRLYGYTEEQPDGLSFPEGQEEPDEHQVATVTLEVLLLRTELSLLLQNTHPRQQALEQLLEDKVEDDMLQLSEFDPLLREIAPGPLTTPSVPGSTPGPCFLCGSAPGTLHCPSCKQALCPACDHLFHGHPSRAHHLRQTLPGVLQGTHLSPSLPASAQPRPQSTSLLALGDSSLSSPNPASAHLPWHCAACAMLNEPWAVLCVACDRPRGCKGLGLGTEGPQGTGGLEPDLARGRWACQSCTFENEAAAVLCSICERPRLAQPPSLVVDSRDAGICLQPLQQGDALLASAQSQVWYCIHCTFCNSSPGWVCVMCNRTSSPIPAQHAPRPYASSLEKGPPKPGPPRRLSAPLPSSCGDPEKQRQDKMREEGLQLVSMIREGEAAGACPEEIFSALQYSGTEVPLQWLRSELPYVLEMVAELAGQQDPGLGAFSCQEARRAWLDRHGNLDEAVEECVRTRRRKVQELQSLGFGPEEGSLQALFQHGGDVSRALTELQRQRLEPFRQRLWDSGPEPTPSWDGPDKQSLVRRLLAVYALPSWGRAELALSLLQETPRNYELGDVVEAVRHSQDRAFLRRLLAQECAVCGWALPHNRMQALTSCECTICPDCFRQHFTIALKEKHITDMVCPACGRPDLTDDTQLLSYFSTLDIQLRESLEPDAYALFHKKLTEGVLMRDPKFLWCAQCSFGFIYEREQLEATCPQCHQTFCVRCKRQWEEQHRGRSCEDFQNWKRMNDPEYQAQGLAMYLQENGIDCPKCKFSYALARGGCMHFHCTQCRHQFCSGCYNAFYAKNKCPEPNCRVKKSLHGHHPRDCLFYLRDWTALRLQKLLQDNNVMFNTEPPAGARAVPGGGCRVIEQKEVPNGLRDEACGKETPAGYAGLCQAHYKEYLVSLINAHSLDPATLYEVEELETATERYLHVRPQPLAGEDPPAYQARLLQKLTEEVPLGQSIPRRRK
modifications: epitope tag
B4: Y82F: V5-tagged HOIP with point mutation Y82F in the PUB binding site (protein, UniProt Q96EP0 1-1072, looked up, variant Y82F)
E3 ubiquitin-protein ligase …: B3 E3 ubiquitin-protein ligase … with Y82F
modifications: V5 tag
B5: N102D: V5-tagged HOIP with point mutation N102D in the PUB binding site (protein, UniProt Q96EP0 1-1072, looked up, variant N102D)
E3 ubiquitin-protein ligase …: B3 E3 ubiquitin-protein ligase … with N102D
modifications: V5 tag
B6: K99E: V5-tagged HOIP with point mutation K99E in the PUB binding site (protein)
chain: B3 E3 ubiquitin-protein ligase … with K99E
modifications: left off: V5, end not stated, kept
B7: Y82A: V5-tagged HOIP with point mutation Y82A in the PUB binding site (protein)
chain: B3 E3 ubiquitin-protein ligase … with Y82A
modifications: left off: V5, end not stated, kept
B8: aa 1–436: HOIP construct aa 1–436, also including B box and NZF domains (protein, UniProt Q96EP0 1-436, looked up, fragment)
chain: MPGEEEERAFLVAREELASALRRDSGQAFSLEQLRPLLASSLPLAARYLQLDAARLVRCNAHGEPRNYLNTLSTALNILEKYGRNLLSPQRPRYWRGVKFNNPVFRSTVDAVQGGRDVLRLYGYTEEQPDGLSFPEGQEEPDEHQVATVTLEVLLLRTELSLLLQNTHPRQQALEQLLEDKVEDDMLQLSEFDPLLREIAPGPLTTPSVPGSTPGPCFLCGSAPGTLHCPSCKQALCPACDHLFHGHPSRAHHLRQTLPGVLQGTHLSPSLPASAQPRPQSTSLLALGDSSLSSPNPASAHLPWHCAACAMLNEPWAVLCVACDRPRGCKGLGLGTEGPQGTGGLEPDLARGRWACQSCTFENEAAAVLCSICERPRLAQPPSLVVDSRDAGICLQPLQQGDALLASAQSQVWYCIHCTFCNSSPGWVCVMCNRTS

System: endogenous OTULIN
Assay: coimmunoprecipitation of endogenous OTULIN with tagged HOIP/HOIL-1
Assay type: cell-based
Settings: tagged HOIP/HOIL-1 constructs, HEK293T or U2OS/NOD2 cells, western blot
Experimental: Transfected HEK293T or U2OS and NOD2 cells were lysed in the presence of protease and phosphatase inhibitors. Clarified lysates were incubated overnight with anti-V5 and anti-HA-agarose resin. […]
siOTULIN: […], siMM […]
Immunoprecipitation of HOIP-V5 and HA-OTULIN
HEK293T or U2OS/NOD2 cells were transfected as indicated. The cells were lysed in IP buffer buffer (25 mM HEPES pH 7.4, 150 mM KCl, 2 mM MgCl2, 1 mM EGTA, 0.5% (v/v) Triton X-100) supplemented with 5 mM NEM (Sigma-Aldrich), cOmplete protease inhibitor cocktail (Roche) and PhosSTOP
(Roche). After 30 minutes on ice, the lysates were cleared by centrifugation and incubated overnight at 4 °C with anti-V5-agarose resin or anti-HA-agarose resin. The beads were washed four times in ice-cold IP buffer and the precipitated material was eluted with 0.2 M glycine, pH 2.5. […]

Molecule	coimmunoprecipitation of endogenous OTULIN (in words)	coimmunoprecipitation of endogenous OTULIN (in words) (listed as wild-type HOIP)
B1	OTULIN interacts with HOIP but not HOIL-1	–
B2	sufficient to coimmunoprecipitate endogenous OTULIN	–
B3	copurified endogenous OTULIN	coprecipitated OTULIN
B4	decreased binding	–
B5	abrogated OTULIN binding	–
B6	decreased binding	–
B7	abrogated OTULIN binding	–
B8	OTULIN interaction was increased	–

Source: publication PMC4017264 (Molecular Cell, 2014)
